Patent US8598314B2 (priority 2007, dated 2013)

Columns and labels:
[1] = Peptide stability in human kidney brush border membranes; settings: Table 6
Experimental: The tubes were incubated in VorTemp 56™ (Eurotech Labs, UK) at 37° C. vortexed at 500 RPM. At time points of 0, 1, 2, 3, 4, and 5 hours, 200 μl STOP solution (50% ACN, 1% formic acid) was added to a given tube, and the samples were allowed to incubate until the end of the experiment. The samples were collected after 5 hours, centrifuged, and 200 μl of the supernatants were transferred into mass spectrometry vials. The intensities of the mother ions in each vial were analyzed with API 150EX™ mass spectrometer (Applied Biosystems, Foster City, Calif.) and quantified using the ANALYST™ program.
The hKBBM assay was also performed in the presence of valinepyrrolidide, a DPP-IV inhibitor.

NIH/Swiss female mice = test: Transient effect on blood glucose and body weight; assay type: in vivo; settings: 250 nmol/kg subcutaneous injection; for effect on body weight (in words): FIGS. 14B and 15B; for return of body weight to pre-treatment levels (in words): day 5, FIG. 15B
Experimental: A subcutaneous injection (200 μL) of vehicle (PBS) or test compound was given to NIH/Swiss female mice immediately following baseline glucose and body weight measurement. Tail blood glucose samples were measured (OneTouch® Ultra®, LifeScan Inc., Milpitas, Calif.) at baseline (time=0) and 2, 4, 8, 24, 48, 72 and 96 hrs. Body weight was measured daily. Significant test sample effects were identified by ANONA (p<0.05) followed by Dunnett's post test (GraphPad PRISM®, version 4.00 for Windows, GraphPad Software, San Diego, Calif.). Points in FIG. 14A, FIG. 14B, FIG. 15A and FIG. 15B represent mean±SD (standard deviation).

Row | SMILES | Stability in hKBBM [1] | effect on body weight (in words) (NIH/Swiss female mice) | return of body weight to pre-treatment levels (in words) (NIH/Swiss female mice)
1 | CC[C@H](C)[C@H](NC(=O)[C@H](Cc1ccccc1)NC(=O)[C@H](CC(C)C)NC(=O)[C@H](CCCNC(=N)N)NC(=O)[C@@H](NC(=O)[C@H](C)NC(=O)[C@H](CCC(=O)O)NC(=O)[C@H](CCC(=O)O)NC(=O)[C@H](CCC(=O)O)NC(=O)[C@H](CC(C)C)NC(=O)[C@H](CCC(N)=O)NC(=O)[C@H](CCCCN)NC(=O)[C@H](CO)NC(=O)[C@H](CC(C)C)NC(=O)[C@H](CC(=O)O)NC(=O)[C@H](CO)NC(=O)[C@@H](NC(=O)[C@H](Cc1ccccc1)NC(=O)[C@@H](NC(=O)CNC(=O)[C@H](CCC(=O)O)NC(=O)CNC(=O)[C@@H](N)Cc1c[nH]cn1)[C@@H](C)O)[C@@H](C)O)C(C)C)C(=O)N[C@@H](CCC(=O)O)C(=O)N[C@@H](Cc1c[nH]c2ccccc12)C(=O)N[C@@H](CC(C)C)C(=O)N[C@@H](CCCCN)C(=O)N[C@@H](CCC(N)=O)C(=O)NCC(=O)NCC(=O)N1CCC[C@H]1C(=O)N[C@@H](CO)C(=O)N[C@@H](CCCCN)C(=O)N[C@@H](CCC(=O)O)C(=O)N[C@H](C(=O)N[C@H](C(=O)N[C@@H](CO)C(=O)NCCOCCOCC(=O)NCCCCC(N)C(=O)N1CCSC1)[C@@H](C)CC)[C@@H](C)CC (some centres unmarked) [Compound 5953] | 76% |  | 
2 | CC[C@H](C)[C@H](NC(=O)[C@H](Cc1ccccc1)NC(=O)[C@H](CC(C)C)NC(=O)[C@H](CCCNC(=N)N)NC(=O)[C@@H](NC(=O)[C@H](C)NC(=O)[C@H](CCC(=O)O)NC(=O)[C@H](CCC(=O)O)NC(=O)[C@H](CCC(=O)O)NC(=O)[C@H](CC(C)C)NC(=O)[C@H](CCC(N)=O)NC(=O)[C@H](CCCCN)NC(=O)[C@H](CO)NC(=O)[C@H](CC(C)C)NC(=O)[C@H](CC(=O)O)NC(=O)[C@H](CO)NC(=O)[C@@H](NC(=O)[C@H](Cc1ccccc1)NC(=O)[C@@H](NC(=O)CNC(=O)[C@H](CCC(=O)O)NC(=O)CNC(=O)[C@@H](N)Cc1c[nH]cn1)[C@@H](C)O)[C@@H](C)O)C(C)C)C(=O)N[C@@H](CCC(=O)O)C(=O)N[C@@H](Cc1c[nH]c2ccccc12)C(=O)N[C@@H](CC(C)C)C(=O)N[C@@H](CCCCN)C(=O)N[C@@H](CCC(N)=O)C(=O)NCC(=O)NCC(=O)N1CCC[C@H]1C(=O)N[C@@H](CO)C(=O)N[C@@H](CCCCN)C(=O)N[C@@H](CCC(=O)O)C(=O)N[C@H](C(=O)N[C@H](C(=O)N[C@@H](CO)C(=O)NCCOCCOCC(=O)NCCCC[C@H](N)C(=O)N1CC[S+]([O-])C1)[C@@H](C)CC)[C@@H](C)CC (some centres unmarked) [Compound 5934] | 97% |  | 
3 | CC[C@H](C)[C@H](NC(=O)[C@H](Cc1ccccc1)NC(=O)[C@H](CC(C)C)NC(=O)[C@H](CCCNC(=N)N)NC(=O)[C@@H](NC(=O)[C@H](C)NC(=O)[C@H](CCC(=O)O)NC(=O)[C@H](CCC(=O)O)NC(=O)[C@H](CCC(=O)O)NC(=O)[C@H](CC(C)C)NC(=O)[C@H](CCC(N)=O)NC(=O)[C@H](CCCCN)NC(=O)[C@H](CO)NC(=O)[C@H](CC(C)C)NC(=O)[C@H](CC(=O)O)NC(=O)[C@H](CO)NC(=O)[C@@H](NC(=O)[C@H](Cc1ccccc1)NC(=O)[C@@H](NC(=O)CNC(=O)[C@H](CCC(=O)O)NC(=O)CNC(=O)[C@@H](N)Cc1c[nH]cn1)[C@@H](C)O)[C@@H](C)O)C(C)C)C(=O)N[C@@H](CCC(=O)O)C(=O)N[C@@H](Cc1c[nH]c2ccccc12)C(=O)N[C@@H](CC(C)C)C(=O)N[C@@H](CCCCN)C(=O)N[C@@H](CCC(N)=O)C(=O)NCC(=O)NCC(=O)N1CCC[C@H]1C(=O)N[C@@H](CO)C(=O)N[C@@H](CCCCN)C(=O)N[C@@H](CCC(=O)O)C(=O)N[C@H](C(=O)N[C@H](C(=O)N[C@@H](CO)C(=O)NCCCC(=O)NCCOCCOCC(=O)NCCCC(=O)NCCCCC(N)C(=O)N1CCC[C@H]1C#N)[C@@H](C)CC)[C@@H](C)CC (some centres unmarked) [Compound 5933] | 87% | decrease in body weight, measurable at day 2 which continues at least through day 5 | 
4 | CC[C@H](C)[C@H](NC(=O)[C@H](Cc1ccccc1)NC(=O)[C@H](CC(C)C)NC(=O)[C@H](CCCNC(=N)N)NC(=O)[C@@H](NC(=O)[C@H](C)NC(=O)[C@H](CCC(=O)O)NC(=O)[C@H](CCC(=O)O)NC(=O)[C@H](CCC(=O)O)NC(=O)[C@H](CC(C)C)NC(=O)[C@H](CCC(N)=O)NC(=O)[C@H](CCCCN)NC(=O)[C@H](CO)NC(=O)[C@H](CC(C)C)NC(=O)[C@H](CC(=O)O)NC(=O)[C@H](CO)NC(=O)[C@@H](NC(=O)[C@H](Cc1ccccc1)NC(=O)[C@@H](NC(=O)CNC(=O)[C@H](CCC(=O)O)NC(=O)CNC(=O)[C@@H](N)Cc1c[nH]cn1)[C@@H](C)O)[C@@H](C)O)C(C)C)C(=O)N[C@@H](CCC(=O)O)C(=O)N[C@@H](Cc1c[nH]c2ccccc12)C(=O)N[C@@H](CC(C)C)C(=O)N[C@@H](CCCCN)C(=O)N[C@@H](CCC(N)=O)C(=O)NCC(=O)NCC(=O)N1CCC[C@H]1C(=O)N[C@@H](CO)C(=O)N[C@@H](CCCCN)C(=O)N[C@@H](CCC(=O)O)C(=O)N[C@H](C(=O)N[C@H](C(=O)N[C@@H](CO)C(=O)NCCOCCOCC(=O)NCCCC[C@H](N)C(=O)N1CCC[C@H]1C#N)[C@@H](C)CC)[C@@H](C)CC [Compound 5954, [^14Leu,^28Gln]Exendin-4-(1-32)-fGLP-1-(33-37)-miniPEG-(S)-2,6-diamino-1-(pyrrolidin-2-cyano-1-yl)hexan-1-amide] | 57% |  | 
5 | CC[C@H](C)[C@H](NC(=O)[C@H](Cc1ccccc1)NC(=O)[C@H](CC(C)C)NC(=O)[C@H](CCCNC(=N)N)NC(=O)[C@@H](NC(=O)[C@H](C)NC(=O)[C@H](CCC(=O)O)NC(=O)[C@H](CCC(=O)O)NC(=O)[C@H](CCC(=O)O)NC(=O)[C@H](CC(C)C)NC(=O)[C@H](CCC(N)=O)NC(=O)[C@H](CCCCN)NC(=O)[C@H](CO)NC(=O)[C@H](CC(C)C)NC(=O)[C@H](CC(=O)O)NC(=O)[C@H](CO)NC(=O)[C@@H](NC(=O)[C@H](Cc1ccccc1)NC(=O)[C@@H](NC(=O)CNC(=O)[C@H](CCC(=O)O)NC(=O)CNC(=O)[C@@H](N)Cc1c[nH]cn1)[C@@H](C)O)[C@@H](C)O)C(C)C)C(=O)N[C@@H](CCC(=O)O)C(=O)N[C@@H](Cc1c[nH]c2ccccc12)C(=O)N[C@@H](CC(C)C)C(=O)N[C@@H](CCCCN)C(=O)N[C@@H](CCC(N)=O)C(=O)NCC(=O)NCC(=O)N1CCC[C@H]1C(=O)N[C@@H](CO)C(=O)N[C@@H](CCCCN)C(=O)N[C@@H](CCC(=O)O)C(=O)N[C@H](C(=O)N[C@H](C(=O)N[C@@H](CO)C(=O)NCCCC(=O)NCCOCCOCC(=O)NCCCC(=O)NCCCCC(N)C(=O)N1CCSC1)[C@@H](C)CC)[C@@H](C)CC (some centres unmarked) [Compound 5932] | 63% | decrease in body weight, measurable at day 2 | body weight does not return to pre-treatment levels by day 5
6 | CC[C@H](C)[C@H](NC(=O)[C@H](Cc1ccccc1)NC(=O)[C@H](CC(C)C)NC(=O)[C@H](CCCNC(=N)N)NC(=O)[C@@H](NC(=O)[C@H](C)NC(=O)[C@H](CCC(=O)O)NC(=O)[C@H](CCC(=O)O)NC(=O)[C@H](CCC(=O)O)NC(=O)[C@H](CC(C)C)NC(=O)[C@H](CCC(N)=O)NC(=O)[C@H](CCCCN)NC(=O)[C@H](CO)NC(=O)[C@H](CC(C)C)NC(=O)[C@H](CC(=O)O)NC(=O)[C@H](CO)NC(=O)[C@@H](NC(=O)[C@H](Cc1ccccc1)NC(=O)[C@@H](NC(=O)CNC(=O)[C@H](CCC(=O)O)NC(=O)CNC(=O)[C@@H](N)Cc1c[nH]cn1)[C@@H](C)O)[C@@H](C)O)C(C)C)C(=O)N[C@@H](CCC(=O)O)C(=O)N[C@@H](Cc1c[nH]c2ccccc12)C(=O)N[C@@H](CC(C)C)C(=O)N[C@@H](CCCCN)C(=O)N[C@@H](CCC(N)=O)C(=O)NCC(=O)NCC(=O)N1CCC[C@H]1C(=O)N[C@@H](CO)C(=O)N[C@@H](CCCCN)C(=O)N[C@@H](CCC(=O)O)C(=O)N[C@H](C(=O)N[C@H](C(=O)N[C@@H](CO)C(=O)NCCCC(=O)NCCOCCOCC(=O)NCCCC(=O)NCCCCC(N)C(=O)N1CCS(=O)(=O)C1)[C@@H](C)CC)[C@@H](C)CC (some centres unmarked) [Compound 5955] | 36% | decrease in body weight, measurable at day 2 | body weight returns to pre-treatment levels by day 5
